Measured values taken from patent US20050287527A1, “Quantitative ranking of transient ligand binding to target biomolecules” (National Research Council of Canada, priority 2002, published 2005).

Target: Recombinant Cdc42 (residues 1-178) from Candida Albicans (Candida albicans) (UniProt P0CY33)
Assay: method not stated; the complexes give no response in relaxation dispersion

Sequence of Recombinant Cdc42 (residues 1-178) from Candida Albicans (Candida albicans) (P0CY33 1-178 limits assumed): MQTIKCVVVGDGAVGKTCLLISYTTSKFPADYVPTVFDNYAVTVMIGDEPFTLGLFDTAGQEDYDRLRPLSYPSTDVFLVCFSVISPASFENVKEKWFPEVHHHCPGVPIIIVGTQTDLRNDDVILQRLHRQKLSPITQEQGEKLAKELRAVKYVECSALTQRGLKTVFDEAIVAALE

Substance | Kd [nM]
40-residue CRIB domain of Candida Cla4 (peptide) | 0.5
40-residue CRIB domain of Candida Ste20 (peptide) | 0.5
